The nanobody polyreactivity screen of Harvey et al. (2022)

Assay: yeast display, Sf9 membrane polyspecificity reagent, FACS + sequencing; frameworks hold sequencing errors
How it was run: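 Polyreactivity labels are assigned by the sorting gate from which each nanobody was recovered. The gates were low and high (top ~1%), set on anti-HA fluorescence for expression and streptavidin fluorescence for reagent binding. Before sorting, galactose-induced (36–48 hours) yeast display cells were stained for 1 hour at 4 °C with 10% biotinylated, detergent-solubilized Sf9 membrane reagent.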

Sequence	polyreactivity (PSR sort gate)
QVQLVESGAGLVQAGGSLRLSCAASGRTFINNVMGWYRQAPGKERELVAAINSGSSTKYADSVKRRFTISRDNAKNTVYLQMNSLKPEDTAVYYCAAELWYFSEIGRMDYWGQGTIVTVSS	high polyreactivity
QVQLVESGAGLVQAGGSLRLSCAASGRTFPYYVMGWYRQAPGKERELVAAIRRTGGSTYYADSVKGRFTISRDNAKNTVYLQMNSLKPEDTAVYYCTQRHSILYEGGYDYWGQGTQVTVSS	low polyreactivity
QVQLVESGAGLVQAGGSLRLSCAASGRTFSGYAMGWYRQAPGKERELVASITWSGGSTYYADSVKGRFTISRDNAKNTVYLQMNSLKPDDTAVYYCARDSPRGRVGFNYWGQGTQVTVSS	low polyreactivity
QVQLVESGAGLVQAGGSLRLSCAASGRTFYWYVMGWYRQAPGKERELVAAITQTGSSTYYADSVKGRFTISRDYAKNTVYLQMNSLKPEDTAVYYWAAEASSVPGYDYWGQGTQVTVSS	low polyreactivity
QVQLVESGAGLVQAGGSLRLSCAASGSAFYVYARGWYTQAPGKERELVAAIRGGGSTNYADSVKGRFTISRDNAKNTFYLQMNSLKPEDTAVYDCAARYRSPRYRPSGYSYNYWGQGTQVTVSS	high polyreactivity
QVQLVESGAGLVQAGGSLRLSCAASGSIFDHYAMGWYRQAPGKERELVAAISSSGGSTYYADSVKGRFTISRDNAKNTVYLQMNSLKPEDTAVYSCAARAGYTRYGYWGQGTQVTVSS	high polyreactivity
QVQLVESGAGLVQAGGSLRLSCAASGSIFPRYAMGWYRQAPWTERELVAAITNGGSTDYADSVKGRFTISRDNAKNTVYLQMNSLKPEDTAVYYCAADLAVGIYPEDGEYWGQGTQVTVSS	low polyreactivity
QVQLVESGAGLVQAGGSLRLSCAASGSIFTENSMGWYRQAPGKEREMVAAIRWDDGHTYYADSVKGRFTISRDNAKNTVYLQMNSLKPEDTAVYYCNADKWSSTDDWLYDYWGQGTQVTVSS	low polyreactivity
QVQLVESGAGLVQAGGSLRLSCAASGSTFYRYVMGWYRQAPGKERELVAAISGSGVRTYYADSVKGRFTISRDNAKNTVYLQMHSLKPEATAVYYCAASVRSRSQTYLRYDYWGQGTQVTVSS	high polyreactivity
QVQLVESGAGLVQAGGSLRLSCAATGSIVDWYVMGWYRQAPGKERELVAAITSTGSTYYADSVKGRFTISRDNAKNPVYLQMNSLKPEDTAVYYCATSFYVYPTYYIMDYWGQGTQVTVSS	low polyreactivity
QVQLVESGAGLVQAGGSLRLSCAPSGFIFFVNAMGWYRQAPGKERELVADITKIDGTTYYADSVKGRFTISRDNAKNTVYLQMNSLKPEDTAVYYCAAGYRQLSSVRDYDYWGQGTQVTVSS	low polyreactivity
QVQLVESGAGLVQAGGSLRLSCAPSGSIFAAYAMGWYRQAPGKESELVAAIDRGGSTDYADSVKGRFTISRDNAKNTVYLQMNTLKPEDTAVYYCAKGYDYYVRRYYYWGQGTQVTVSS	high polyreactivity
QVQLVESGAGLVQAGGSLRLTCAASARILGAYAMGWYRQAPGKERELVASISSGGRTYYADSVKGRFTISRDNAKNTVYLQMNSLKPEDTAVYYCNRDRNSGFYRRYGYWGQGSQVTVSS	high polyreactivity
QVQLVESGAGLVQAGGSLRRSCAASGGNFYYNVMGWYRQAPGKERELLAAIDTSGGNRYADSVKGRFTISRDNAKNTVYLQMNSLNPEDTAVYYSAVGAYWYFGIVSYGYDYWGQGTQVTVSS	low polyreactivity
QVQLVESGAGLVQAGGSRRLSCAASGFTFKSYAMGLYRQAAGKERELVAAINRSGGSTYYADSVKGRFTISRDYAMNTVYLQMNSLSPDDTAVYYCAAVKPPDYYYWGQGTQVTVSS	high polyreactivity
QVQLVESGAGLVQAGRSLRLSCASSGITIKRYAMGWYSQAPGKESELVAAINFGAGNTYYADSVKGRFTISRDNAKNPVYLQMNSLKPEDSAVYYCATTARHRYGEYYYWGLGTQVTVSS	high polyreactivity
QVQLVESGAGLVQARGSLRLTCAASGGTFLSYAKGWYRQAPGKERELVAGISSGGSTNYADSVKGRFTISRDNAKNTVYLQMNSLKPEDTAVYYCAADSFPSEFDYWGQGTQVTVSS	low polyreactivity
QVQLVESGEGIVQAGGSLRLSCAASGSIFGIYVMGWYRQAPGKERELVAAITFGGGSTYYADSVKGRFTISRYNAKNSVYLKMNRLKPEDTSVYYCAAKSYDEGLYRRPRDYWGQGTQVTESS	high polyreactivity
QVQLVESGEGLVQAGGSLRLSCAASGRIFAWYAMGWYRQAPGKERELVAAIDRGDNTYYADSVKGRFTISRDNAKNTGYLQMNSLKPEDTAVYYGFYYGAHEPYGYWGQGTQVTVSS	low polyreactivity
QVQLVESGGAIVQAGGSLRLSCAASGRIYYPYAMGWYRQAPGKERELVAAISSGVSTNYADSVKGRFTITRDNAKNTVYLQMNSLNPEDTAVYYCARTYFRFSSSYYKAVSHGFWGQGTQVTVSS	high polyreactivity
QVQLVESGGALLQAGGSLRLSCAASGRTFPGYGMGWYRQAPGKERELVAVITSNGGITYYADSVKGRFTISRDNAKNTVYLQMNSLKPEDTAVYYCAAYEIYYEFDSWGQGTQVTVSS	low polyreactivity
QVQLVESGGALVHAGGSLRLTCAASGYTFRYYAMRWYRQAPGKERELVARINRSGGSTYYADSVKGRFTISRDNAKNTVYLQMNSLKPEDTAVYYCNRDYGWHYSYEYWGQGTQVTVSS	high polyreactivity

Sequence	polyreactivity (PSR sort gate)
QVQLVESGGALVQAGCSLRLSCAASGITFAPYAKGWYRQAPGKEREMVAGINTGGSTYYADSVKGRFTISRDNAKYTVYLQMNSLKPEDTADYYCATESYPADQDIPGSDYWGQGTQVTVSS	low polyreactivity
QVQLVESGGALVQAGGSHRLSCAASGIIFDYNAAMGWYRQAPGKERELVAAISISGGSTYYADSVKGRFTISRDNAKNTVYLQMNSPKPEDTAVSYCAAVNYEWNYGYDYWGPGTQVTVSS	low polyreactivity
QVQLVESGGALVQAGGSLRLRCAASGRIFRLYAMGWYRQAPGKERELVAAISSSGADTYYADSVKGRFTISSDNAKNTVDLQMNSLKPEETAVYYCAARTWHRYDYFGQGTQVTVSS	high polyreactivity
QVQLVESGGALVQAGGSLRLSCAASARTFIQNGMGWNRQEPGKERELVAAISYRGGTTSYADSVQGRFTISRDNAKNTVYLQMNSLKPEVTAVYYCAKRYTYYSYDYWGQGTQVTVSS	high polyreactivity
QVQLVESGGALVQAGGSLRLSCAASGFTLSAYAKGWYRQAPGKERELVAGISYTGGRTYYADSVKGRFTISRDNAKNTVYLQMNSLKPEDTAVYYCNKAWSGYYKYGYWGQGTQVTVSS	low polyreactivity
QVQLVESGGALVQAGGSLRLSCAASGGTFFSNAMGWYRQAPGKERELVAAISNDDGDTYYADSVKGRFTISRDNAKNTVYLQMNSLKPEDTAVYYCAVDYSYLHRTTFEYWGQGTQVTVSS	low polyreactivity
QVQLVESGGALVQAGGSLRLSCAASGRIFGVNAIGWYRQAPGKERELVADISSGGSTNYADSVKGRFTISRDNAKNTVYLQMNSLKPEDTAVYYCAARTLRAGYRASGVRRDYWGQGTQVTVSS	high polyreactivity
QVQLVESGGALVQAGGSLRLSCAASGRIFVVNAMGWYRQAPGKERELGAAISIRGTRTYYADSVKGRFTISRDNAKNTVYLQMNSLKPEDTAVYYCAADASYTEGMDYWGQGTQVTVSS	high polyreactivity
QVQLVESGGALVQAGGSLRLSCAASGRIIYKNAMRWYRQAPGKETELVATITYSDGTTYYADSVKGRFTISRDNAKNTVYLQMNSLKPEDTAVYYCAAQTDSVESDYWGQGTQVTVSS	low polyreactivity
QVQLVESGGALVQAGGSLRLSCAASGRTFNRYGMGRYRQAPGEERELVASITSGGSTNYADSVKGRFTISRDNAKNTVFLQMNSLKPEDTAVYYCAKRSIGRYPRTYDYWGQGTKVTVSS	low polyreactivity
QVQLVESGGALVQAGGSLRLSCAASGRTFTFNTMGWYRQAPGKERELVAAIDGDGTTNYADSVKGRFTISRDNAKNTVYLLMNSLKPEDTAVYYCAADFLYSFWYEPTFDYCGQGTQVTVSS	low polyreactivity
QVQLVESGGALVQAGGSLRLSCAASGSISTYAIGWYRQAPGKERELVAAMNKRGGSTYYADSVKGRFTISRDNAKNTVDLQMNSLKPADTAVDYCAAGLAHSAAFDYWGQGTQVTVSS	low polyreactivity
QVQLVESGGALVQAGGSLRLSCAASGSTFPYYAMGWYRQAPGKERELVAAISRGGGITYYADSVKGRLTISRDNAKNTVYLQMISLKPEDTAVYYCAARGFWWPYTYYYWGQGTQVTVSS	high polyreactivity
QVQLVESGGALVQAGGSLRLSCAASGSTFRYDMGWYRQAPGKERELVAAITWGGVSTYYADSVKGRFTISRDNAKNTVYLQMNSLKPEDTAVYYCNVVISLQQGDYWGQGTQVTVSS	low polyreactivity
QVQLVESGGALVQAGGSLRLSCAASGSTFYGYAMGWYRQATGKERELVASITTRGGRTNYADSVKVRFTISRDNAKNTVYLEMNSLKPEDNSVYYCATYSYVTRYARWGEFDYWGQGTQVTVSS	high polyreactivity
QVQLVESGGALVQAGGSLRLSCAASGSTFYRNAMGWYRPAPGKERELVATISSSDGSTYYADSVKGRFTISRDNAKNTVYVQMNSLKPEDTAVYYCNADPISSGSVANFQYDYCGQGTQVTVSS	low polyreactivity
QVQLVESGGALVQAGGSLRLSCAASGSTMGWYRQAPGKVREFVAAIRWIGGGTYYADSVKGRFTISRDNAKNTVYLQMNSLKPEDTGVYYCAARLSVAWVGYDYWGQGTQVTVSS	low polyreactivity
QVQLVESGGALVQAGGSLRLSCAASGSTSYTNAMGLYRHAPGKEREFVASISLSAGSTYYADSVKGRFKISRDNAKNTVYLQMNSLKPEDTAVYYCASESVAILGLVYPKGYGYWGQGTQVTVSS	low polyreactivity
QVQLVESGGALVQAGGSLRLSCAASGYTFCYNAMGWYRQAPGKEREFVAAISWSGGSTYYADSVKGRFTISRDNAKNTVYLQMYSLKPEDTAVYYCAVEGVYWYVSMYYWGQGTQVTVSS	low polyreactivity
QVQLVESGGALVQAGGSLRLSCAASGYTFSKYAMGWYRQAPGKERELVAAISKRGGSTSYADSVKGRFTISRDNAKNTVYLQMNILKPEDTAVYYCNAREWSRTFDYWGQGSQVTVSS	high polyreactivity
QVQLVESGGALVQAGGTLRLSGAASGIIFDGYAMGWYRQAPGKEREFVAVISSSGGTTYYADSVKGRFTISRDNAKNTVYLQMNRLKPEDSAVYYCACVYVSLWPSATYWSGFGYWGQGTKVTVSS	low polyreactivity
